Substrate in this data set: NC(=O)c1ccc[n+]([C@@H]2O[C@H](COP(=O)(O)OP(=O)(O)OC[C@H]3O[C@@H](n4cnc5c(N)ncnc54)[C@H](OP(=O)(O)O)[C@@H]3O)[C@@H](O)[C@H]2O)c1
In words: NADP+ reduction, Eadie-Hofstee plot, crude E. coli extract. The conditions noted are these: co-substrate G6P, assay as for plant extracts: 50 mM Hepes-Tris pH 7.8, 3.3 mM MgCl2. The class given is biochemical, Glycine max.

B1: GmG6PDH2 (Glycine max) (protein)
chain: MGTSEWHIERRSSFGTESPLAREAGNVPETGSLSIVVLGASGDLAKKKTFPALFHLYRQGFLPADEVHIFGYARTKISDDELRNRLRGYLVPNKGASPQLLEDVEKFLQLIKYVSGSYDSEDGFRLLDKEISEHEYLKKSVEGLSRRLFYLALPPSVYPSVCKMIKTCCMNKSDLGGWTRVVVEKPFGKDLESAEELSTEIGKLFEEPQIYRIDHYLGKELVQNLLVLRFANRFFLPLWNRDNIDNVQIVFREDFGTDGRGGYFDQYGIIRDIIQNHLLQVLCLVAMEKPVSLRPEHIRDEKVKVLESVLPIRDDEVVLGQYEGYKDDPTVPDKSNTPTFATVILRIHNERWEGVPFILKAGKALNSRKAEIRVQFKDVPGDIFKCKKQGRNEFVIRLQPLEAMYMKLTVKQPGLEMSTVQSELDLSYGQRYQGVTIPEAYERLILDTIKGDQQHFVRRDELKASWQIFTPLLHRIDEGEFKPLPYKPGSRGPAEADQLLEKAGYVQTHGYIWIPPTL
notes: full-length CDS in pET32a(+), His-tagged, E. coli Rosetta; crude lysate supernatant, not purified
Broadly, the Km is the substrate concentration at which the rate is half of its maximum. With B1, the Km amounted to 33 µM.

The values above are taken from PMC7054389, “Genome-Wide Analysis of the Glucose-6-Phosphate Dehydrogenase Family in Soybean and Functional Identification of GmG6PDH2 Involvement in Salt Stress” (Frontiers in Plant Science, 2020).
